# Laboratory results as given in doi:10.1101/2021.09.21.461191v4.
# Substrate: OC[C@@H](O)[C@H](O)[C@@H](O)CO
# Assay: cells, lysate or membranes
# Details: proton symport, membrane voltage -40 mV, external pH 5.5
protein,measurement,value
BvPMT5a (Beta vulgaris subsp. vulgaris) (protein) MSEGTNKAMSDPPPTTASKVIADFDPLKKPPKRNKFAFACATLASMTSVLLGYDIGVMSGAIIYLKEDWHISDTQIGVLVGILNIYCLFGSFAAGRTSDWIGRRYTIVLAGAIFFVGALLMGFATNYAFLMVGRFVTGIGVGYALMIAPVYTAEVSPASSRGFLTSFPEVFINAGILLGYISNLAFSSLPTHLSWRFMLGIGAIPSIFLAIGVLAMPESPRWLVMQGRLGDAKKVLNRISDSPEEAQLRLSEIKQTAGIPAECDEDIYKVEKTKIKSGNAVWKELFFNPTPAVRRAVIAGIGIHFFQQASGIDAVVLYSPRIFQSAGITNARKQLLATVAVGVVKTLFILVATFQLDKYGRRPLLLTSVGGMIIAILTLAMSLTVIDHSHHKITWAIALCITMVCAVVASFSIGLGPITWVYSSEVFPLRLRAQGTSMGVAVNRVVSGVISIFFLPLSHKITTGGAFFLFGGIAIIAWFFFLTFLPETRGRTLENMHELFEDFRWRESFPGNKSNNDENSTRKQSNGNDKSQVQLGETTTSTTVTNDNH,Km,2500 µM
